Biological target: reconstituted elongation complex (EC): His-tagged E. coli RNAP core complex on template DNA, non-template DNA … (E. coli, Core RNAP assembled with biotinylated 49-mer template/non-template DNA and RNA primer (nucleic acid sequences in the supplement). The text gives only 'RNAP core complex' from pIA900; alpha2-beta-beta')
Sequence (A1AGI6 whole entry, chain 1 of 4): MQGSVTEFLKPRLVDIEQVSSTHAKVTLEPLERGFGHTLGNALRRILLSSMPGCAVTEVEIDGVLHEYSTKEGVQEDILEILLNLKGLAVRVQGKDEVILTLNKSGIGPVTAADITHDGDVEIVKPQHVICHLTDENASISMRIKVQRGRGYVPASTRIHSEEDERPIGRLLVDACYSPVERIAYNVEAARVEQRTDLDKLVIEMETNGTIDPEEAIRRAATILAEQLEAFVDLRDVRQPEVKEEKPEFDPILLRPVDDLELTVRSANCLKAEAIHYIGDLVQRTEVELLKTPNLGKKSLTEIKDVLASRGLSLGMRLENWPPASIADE
Sequence (A1AIF9 whole entry, chain 2 of 4, further chain): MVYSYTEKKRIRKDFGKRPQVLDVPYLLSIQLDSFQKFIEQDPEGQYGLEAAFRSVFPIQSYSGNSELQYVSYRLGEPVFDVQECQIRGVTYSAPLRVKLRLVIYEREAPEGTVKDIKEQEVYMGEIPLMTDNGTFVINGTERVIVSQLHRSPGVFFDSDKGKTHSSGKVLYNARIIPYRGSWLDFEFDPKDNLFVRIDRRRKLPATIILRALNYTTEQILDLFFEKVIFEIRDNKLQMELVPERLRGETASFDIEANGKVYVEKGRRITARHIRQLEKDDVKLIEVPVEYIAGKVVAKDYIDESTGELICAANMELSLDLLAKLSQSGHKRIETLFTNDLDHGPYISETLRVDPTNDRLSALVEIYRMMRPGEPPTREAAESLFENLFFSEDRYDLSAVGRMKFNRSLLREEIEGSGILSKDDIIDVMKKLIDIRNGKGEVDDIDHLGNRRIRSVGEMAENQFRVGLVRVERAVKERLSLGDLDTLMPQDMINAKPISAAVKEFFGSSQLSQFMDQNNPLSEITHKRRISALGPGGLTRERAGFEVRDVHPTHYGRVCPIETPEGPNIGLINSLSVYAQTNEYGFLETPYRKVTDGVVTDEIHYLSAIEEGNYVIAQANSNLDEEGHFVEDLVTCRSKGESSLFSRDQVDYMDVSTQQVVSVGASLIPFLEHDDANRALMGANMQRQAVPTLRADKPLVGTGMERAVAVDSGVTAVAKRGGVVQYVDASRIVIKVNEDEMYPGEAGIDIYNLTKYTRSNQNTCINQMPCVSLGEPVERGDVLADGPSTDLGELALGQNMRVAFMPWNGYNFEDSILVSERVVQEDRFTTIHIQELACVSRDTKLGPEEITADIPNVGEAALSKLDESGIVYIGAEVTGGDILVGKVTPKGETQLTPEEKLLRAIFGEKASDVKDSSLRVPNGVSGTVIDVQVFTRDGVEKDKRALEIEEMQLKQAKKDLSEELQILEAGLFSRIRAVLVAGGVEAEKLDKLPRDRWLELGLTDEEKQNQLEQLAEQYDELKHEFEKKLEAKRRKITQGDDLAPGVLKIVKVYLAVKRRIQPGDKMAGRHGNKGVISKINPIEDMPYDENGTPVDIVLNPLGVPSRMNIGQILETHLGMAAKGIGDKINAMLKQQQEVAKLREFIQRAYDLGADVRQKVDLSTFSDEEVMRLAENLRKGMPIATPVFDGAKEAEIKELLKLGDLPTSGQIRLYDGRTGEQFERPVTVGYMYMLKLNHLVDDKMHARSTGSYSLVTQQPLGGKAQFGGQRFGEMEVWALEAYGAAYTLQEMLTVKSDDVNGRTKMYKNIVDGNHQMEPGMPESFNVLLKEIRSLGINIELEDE
Sequence (A7ZUK2 whole entry, chain 3 of 4, further chain): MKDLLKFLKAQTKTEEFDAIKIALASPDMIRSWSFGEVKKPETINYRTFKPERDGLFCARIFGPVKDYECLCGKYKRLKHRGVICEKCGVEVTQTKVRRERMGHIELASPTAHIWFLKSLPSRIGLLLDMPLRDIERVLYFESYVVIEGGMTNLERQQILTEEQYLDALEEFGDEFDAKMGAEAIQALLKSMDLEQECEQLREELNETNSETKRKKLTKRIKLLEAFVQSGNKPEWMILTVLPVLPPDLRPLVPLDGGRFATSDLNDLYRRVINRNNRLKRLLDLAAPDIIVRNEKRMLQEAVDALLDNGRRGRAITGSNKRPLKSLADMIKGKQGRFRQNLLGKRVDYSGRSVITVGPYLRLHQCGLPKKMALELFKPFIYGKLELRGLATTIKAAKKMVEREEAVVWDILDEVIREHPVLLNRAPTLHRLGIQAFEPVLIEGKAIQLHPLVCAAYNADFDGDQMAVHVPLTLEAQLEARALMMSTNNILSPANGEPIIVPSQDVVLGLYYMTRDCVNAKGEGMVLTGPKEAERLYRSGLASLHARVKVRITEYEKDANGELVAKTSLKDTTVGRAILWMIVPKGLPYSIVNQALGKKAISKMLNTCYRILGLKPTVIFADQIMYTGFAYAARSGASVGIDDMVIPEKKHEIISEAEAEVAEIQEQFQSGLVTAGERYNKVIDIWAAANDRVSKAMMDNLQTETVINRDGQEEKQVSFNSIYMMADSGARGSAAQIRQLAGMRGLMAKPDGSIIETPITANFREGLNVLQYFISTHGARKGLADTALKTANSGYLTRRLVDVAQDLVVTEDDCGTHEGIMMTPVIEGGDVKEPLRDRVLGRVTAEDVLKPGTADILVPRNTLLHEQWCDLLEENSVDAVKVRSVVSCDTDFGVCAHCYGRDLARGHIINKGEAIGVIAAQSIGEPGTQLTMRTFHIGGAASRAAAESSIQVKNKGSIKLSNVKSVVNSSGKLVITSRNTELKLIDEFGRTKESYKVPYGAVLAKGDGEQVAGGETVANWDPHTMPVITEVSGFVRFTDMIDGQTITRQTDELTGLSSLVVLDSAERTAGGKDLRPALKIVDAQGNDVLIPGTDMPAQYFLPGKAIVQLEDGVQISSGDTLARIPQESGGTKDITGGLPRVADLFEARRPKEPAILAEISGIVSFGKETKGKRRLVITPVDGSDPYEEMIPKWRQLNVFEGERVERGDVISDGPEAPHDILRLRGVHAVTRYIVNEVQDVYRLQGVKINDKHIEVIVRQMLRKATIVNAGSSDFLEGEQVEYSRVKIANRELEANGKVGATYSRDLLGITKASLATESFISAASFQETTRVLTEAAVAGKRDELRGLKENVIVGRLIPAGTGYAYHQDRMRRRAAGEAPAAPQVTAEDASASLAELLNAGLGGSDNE
Sequence (A1AHI0 2-91, chain 4 of 4, further chain): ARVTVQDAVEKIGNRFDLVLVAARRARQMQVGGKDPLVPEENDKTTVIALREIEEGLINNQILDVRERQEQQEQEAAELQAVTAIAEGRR
Experiment: SPR; BIAcore T200, SA chip; reconstituted EC on biotinylated 49-mer immobilised (550 RU after 1 M KCl wash); Mfd 0-640 nM flowed in SPR buffer (30 mM Tris/HCl pH 7.6, 40 mM KCl, 5 mM MgCl2, 0.005% P20, 0.25 mM EDTA, 0.5 mM DTT) with 0.5 mM ATPɣS; 20°C; 1:1 steady state affinity fit
Conditions: both partners purified

B1: Mfd, the bacterial transcription-repair coupling factor (wild type) (natural protein, E. coli, UniProt P30958 1-1148, looked up)
chain: MPEQYRYTLPVKAGEQRLLGELTGAACATLVAEIAERHAGPVVLIAPDMQNALRLHDEISQFTDQMVMNLADWETLPYDSFSPHQDIISSRLSTLYQLPTMQRGVLIVPVNTLMQRVCPHSFLHGHALVMKKGQRLSRDALRTQLDSAGYRHVDQVMEHGEYATRGALLDLFPMGSELPYRLDFFDDEIDSLRVFDVDSQRTLEEVEAINLLPAHEFPTDKAAIELFRSQWRDTFEVKRDPEHIYQQVSKGTLPAGIEYWQPLFFSEPLPPLFSYFPANTLLVNTGDLETSAERFQADTLARFENRGVDPMRPLLPPQSLWLRVDELFSELKNWPRVQLKTEHLPTKAANANLGFQKLPDLAVQAQQKAPLDALRKFLETFDGPVVFSVESEGRREALGELLARIKIAPQRIMRLDEASDRGRYLMIGAAEHGFVDTVRNLALICESDLLGERVARRRQDSRRTINPDTLIRNLAELHIGQPVVHLEHGVGRYAGMTTLEAGGITGEYLMLTYANDAKLYVPVSSLHLISRYAGGAEENAPLHKLGGDAWSRARQKAAEKVRDVAAELLDIYAQRAAKEGFAFKHDREQYQLFCDSFPFETTPDQAQAINAVLSDMCQPLAMDRLVCGDVGFGKTEVAMRAAFLAVDNHKQVAVLVPTTLLAQQHYDNFRDRFANWPVRIEMISRFRSAKEQTQILAEVAEGKIDILIGTHKLLQSDVKFKDLGLLIVDEEHRFGVRHKERIKAMRANVDILTLTATPIPRTLNMAMSGMRDLSIIATPPARRLAVKTFVREYDSMVVREAILREILRGGQVYYLYNDVENIQKAAERLAELVPEARIAIGHGQMRERELERVMNDFHHQRFNVLVCTTIIETGIDIPTANTIIIERADHFGLAQLHQLRGRVGRSHHQAYAWLLTPHPKAMTTDAQKRLEAIASLEDLGAGFALATHDLEIRGAGELLGEEQSGSMETIGFSLYMELLENAVDALKAGREPSLEDLTSQQTEVELRMPSLLPDDFIPDVNTRLSFYKRIASAKTENELEEIKVELIDRFGLLPDPARTLLDIARLRQQAQKLGIRKLEGNEKGGVIEFAEKNHVNPAWLIGLLQKQPQHYRLDGPTRLKFIQDLSERKTRIEWVRQFMRELEENAIA
notes: Mfd (transcription-repair coupling factor), E. coli; mfd gene without ypet inserted in vector pSH1017, plasmid pHG4137; called full-length Mfd in the cryo-EM section; No tag is stated; purified by conventional chromatography; In the SPR it was flowed with 0.5 mM ATPɣS; also called TRCF; wildtype Mfd; source: E. coli BL21(λDE3)recA, purified (ammonium sulfate, DEAE, heparin Sepharose)
Q: B1 was tested. Which Kd did it give?
A: 127 ± 6 nM
